Results reported in patent US20220387487A1, “COMPOSITIONS AND METHODS FOR TREATMENT OF CANCER” (Aleta Biotherapeutics Inc., priority 2019, published 2022).
Positions count from the first letter of the chain named. Values joined by “and” are separate entries in the source; they are usually repeats but may differ in a detail not shown here. Equal entries are not always repeated.

How the values were obtained:
[1] = biological target: T1, biotinylated CD33 (UniProt P20138 18-259, biotinylated (site not stated)); experiment: ELISA: fusion protein captured on FMC63, biotinylated CD33, HRP-SA
[2] = biological target: T2, CD33 on U937 cells (UniProt P20138 18-364, limits assumed); experiment: flow cytometry on U937 cells (cell line per paragraph 272), purified fusion protein, detection with FMC63-PE, % Binding; the cells carry both CLEC12A and CD33, the value is for the whole cell and is not split between the two antigens
T2 construct: whole, on cells

[3] = biological target: T3, CLL-1 (CLEC12A) on CLL-1 positive cell lines (U937, OCI-AML-5) (human, UniProt Q5QGZ9 1-265); experiment: as above
T3 construct: whole, on cells; also called MICL
T3 sequence: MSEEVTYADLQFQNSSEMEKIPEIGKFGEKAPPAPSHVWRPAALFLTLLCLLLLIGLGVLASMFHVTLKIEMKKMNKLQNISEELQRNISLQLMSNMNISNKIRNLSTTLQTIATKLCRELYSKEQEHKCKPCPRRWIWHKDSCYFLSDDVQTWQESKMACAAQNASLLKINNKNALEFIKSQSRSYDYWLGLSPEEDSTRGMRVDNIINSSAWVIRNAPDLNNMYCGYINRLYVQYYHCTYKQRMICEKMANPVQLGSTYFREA

[4] = biological target: T3, CLL-1 (CLEC12A) on CLL-1 positive cell …; experiment: cell-based or functional assay
[5] = biological target: T4, full-length CLEC12A, amino acid 254 K version, on transfected HEK-293T cells (Homo sapiens (Human), UniProt Q5QGZ9 1-265); experiment: flow cytometry on transfected HEK-293T cells, HIB19-PE detection
T4 construct: GenScript cDNA, UniProt Q5QGZ9-1 as printed; also called K form; K version of CLEC12A
T4 sequence: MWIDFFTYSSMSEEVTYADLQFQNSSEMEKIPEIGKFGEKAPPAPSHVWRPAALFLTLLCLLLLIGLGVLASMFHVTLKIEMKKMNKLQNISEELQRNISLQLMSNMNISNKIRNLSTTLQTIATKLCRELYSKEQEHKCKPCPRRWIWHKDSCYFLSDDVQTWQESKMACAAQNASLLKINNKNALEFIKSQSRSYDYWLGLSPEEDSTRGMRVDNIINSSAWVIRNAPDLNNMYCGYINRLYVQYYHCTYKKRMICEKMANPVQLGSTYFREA

[6] = biological target: T3, CLL-1 (CLEC12A) on CLL-1 positive cell …; experiment: flow cytometry on CLL-1 positive U937 cells, FMC63-PE detection
[7] = biological target: CLEC12A as named in the ELISA column of Table 8 (UniProt Q5QGZ9); experiment: ELISA (protocol as printed: FMC63 coat, fusion protein titrated, HRP anti-His)
[8] = biological target: T1, biotinylated CD33; experiment: ELISA: fusion protein captured on FMC63, biotinylated CD33 at 0.5 µg/ml, HRP-SA
[9] = biological target: T3, CLL-1 (CLEC12A) on CLL-1 positive cell …; experiment: flow cytometry on U937 cells, purified fusion protein, a-His-PE detection, % Binding
[10] = biological target: T3, CLL-1 (CLEC12A) on CLL-1 positive cell …; experiment: flow cytometry on CLL-1 positive U937 cells, expressed fusion protein, detection with FMC63-PE, % Binding
[11] = biological target: T3, CLL-1 (CLEC12A) on CLL-1 positive cell …; experiment: flow cytometry on U937 cells (cell line per paragraph 272), purified fusion protein, detection with FMC63-PE, % Binding
[12] = biological target: T5, full-length CLEC12A, version with Q at amino acid 254, on transfected HEK-293T cells (Homo sapiens (Human), UniProt Q5QGZ9 1-265); experiment: flow cytometry on HEK-293T cells transfected with CLEC12A 'Q' version, purified fusion protein, detection with HIB19-PE, % Binding
T5 construct: Generated by mutagenesis of the K version; also called Q form
T5 sequence: T4 sequence with K254Q

[13] = biological target: T6, CLEC12A (Homo sapiens, UniProt Q5QGZ9); settings: CLEC12A from AbClonal or cDNA from Genscript; previous studies; cited from earlier work
T6 construct: literature AbClonal (protein); Genscript (cDNA)
T6 sequence (Q5QGZ9 1-275 isoform Q5QGZ9-1): T4 sequence

[14] = biological target: T2, CD33 on U937 cells; experiment: flow cytometry on U937 cells (cell line per paragraph 272), purified fusion protein, detection with FMC63-PE, % Binding

B1: anti-CD33 scFv-anti-CLL VHH (2H3)-CD19 variant (construct #440) (other)
chain: QVQLVQSGAEVKKPGESVKVSCKASGYTFTNYGMNWVKQAPGQGLEWMGWINTYTGEPTYADKFQGRVTMTTDTSTSTAYMEIRNLGGDDTAVYYCARWSWSDGYYVYFDYWGQGTSVTVSSGGGGSGGGGSGGGGSDIVMTQSPDSLTVSLGERTTINCKSSQSVLDSSTNKNSLAWYQQKPGQPPKLLLSWASTRESGIPDRFSGSGSGTDFTLTIDSPQPEDSATYYCQQSAHFPITFGQGTRLEIKGGGGSGGGGSGGGGSGGGGSQVQLQESGGGLVQAGGSLRLSCVASGSIRSINVMGWYRQAPGKQRELVAACASDGNTYYADSVKGRFTISRDNAEKTVYLQMNNLKPDDTAVYYCDANSRGNYYSGQGTQVTVSSTSGPGGQGAGGGGSGGGGSGGGGSGGGGSPEEPLVVKVEEGDTAALWCLKGTSDGPTQQLTWSRESPLKPFLKYSLGVPGLGVHVRPDAISVVIRNVSQQMGGFYLCQPGPPSEKAWQPGWTVNVEGSGELFRWNVSDLGGLGCGLKNRSSEGPSSPSGKLMSPKLYVWAKDRPEIWEGEPPCLPPRDSLNQSLSRDLTVAPGSTLWLSCGVPPDSVSRGPLSWTHVHPKGPKSLLSLELKDDRPARDMWVMGTSLMLPRATAQDAGKWYCHRGNLTMSFHLEITARPSRHHHHHH
EC50 [1]: 0.0021 µg/mL and 0.0292 nM
EC50 [2]: 0.00796 µg/mL and 0.111 nM
EC50 [3]: 0.00796 µg/mL and 0.111 nM

B2: anti-CLL-1 VHH(2H3)-CD19 variant (construct #330) (other)
chain: QVQLQESGGGLVQAGGSLRLSCVASGSIRSINVMGWYRQAPGKQRELVAACASDGNTYYADSVKGRFTISRDNAEKTVYLQMNNLKPDDTAVYYCDANSRGNYYSGQGTQVTVSSTSGPGGQGAGGGGSGGGGSGGGGSGGGGSPEEPLVVKVEEGDTAALWCLKGTSDGPTQQLTWSRESPLKPFLKYSLGVPGLGVHVRPDAISVVIRNVSQQMGGFYLCQPGPPSEKAWQPGWTVNVEGSGELFRWNVSDLGGLGCGLKNRSSEGPSSPSGKLMSPKLYVWAKDRPEIWEGEPPCLPPRDSLNQSLSRDLTVAPGSTLWLSCGVPPDSVSRGPLSWTHVHPKGPKSLLSLELKDDRPARDMWVMGTSLMLPRATAQDAGKWYCHRGNLTMSFHLEITARPSRHHHHHH
notes: Fusion of anti-CLL-1 VHH 2H3, linker, CD19 variant extracellular domain and His tag; also called fusion protein #330; single VHH #330 fusion protein
CLEC12A-cell cytotoxicity (IC50 n = 2-3) [4]: 0.0078 nM
fold weaker binding than to the Q form [5]: > 10000 fold
EC50 [6]: 1 nM
EC50 [7]: 0.013 nM
binding result [8]: no binding
EC50 [9]: 0.00114 µg/mL and 0.0261 nM
EC50 [10]: 0.0449 µg/mL
EC50 [11]: 0.00406 µg/mL and 0.0865 nM
EC50 [12]: 0.0048 nM and 0.00021 µg/mL

B3: VHH clone 2H3: anti-CLL-1/CLEC12A VHH (protein)
VHH: QVQLQESGGGLVQAGGSLRLSCVASGSIRSINVMGWYRQAPGKQRELVAACASDGNTYYADSVKGRFTISRDNAEKTVYLQMNNLKPDDTAVYYCDANSRGNYYSGQGTQVTVSS
binding to CLEC12A containing a Lysine residue at amino acid 254 [13]: did not bind

B4: anti-CD33 scFv-variant CD19-His (construct #410) (other)
chain: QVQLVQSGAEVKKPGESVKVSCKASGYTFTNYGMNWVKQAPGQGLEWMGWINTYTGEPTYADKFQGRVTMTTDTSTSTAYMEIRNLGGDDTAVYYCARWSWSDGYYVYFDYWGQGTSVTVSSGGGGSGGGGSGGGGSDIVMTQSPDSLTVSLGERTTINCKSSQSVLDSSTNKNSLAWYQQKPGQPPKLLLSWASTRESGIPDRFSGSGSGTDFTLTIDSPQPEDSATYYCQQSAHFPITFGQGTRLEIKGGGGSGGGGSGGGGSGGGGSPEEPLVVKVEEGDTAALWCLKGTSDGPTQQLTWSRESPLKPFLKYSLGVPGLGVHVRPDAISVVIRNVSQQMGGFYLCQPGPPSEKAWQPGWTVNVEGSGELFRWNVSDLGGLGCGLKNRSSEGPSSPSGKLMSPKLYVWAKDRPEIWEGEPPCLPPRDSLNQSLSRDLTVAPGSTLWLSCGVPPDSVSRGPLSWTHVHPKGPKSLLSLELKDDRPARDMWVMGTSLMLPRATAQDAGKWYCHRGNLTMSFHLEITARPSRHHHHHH
notes: also called anti-CD33 scFv fusion protein
EC50 [1]: 0.003 µg/mL and 0.0522 nM
EC50 [14]: 0.0213 µg/mL and 0.37 nM
